{"source": "paper doi:10.1101/054106", "about": "“Glu-370 in the Large Subunit Influences the Substrate Binding, Allosteric, and Heat Stability Properties of Potato ADP-glucose Pyrophosphorylase” (bioRxiv, 2016)", "target": "the molecule itself", "experiment": "non-reducing SDS-PAGE with Western blot; cell-free extracts in Laemmli sample buffer without reducing agent, 10% SDS-PAGE, Western blot with anti-LS and anti-SS antibodies; shows disulfide-linked dimers only", "data": [{"protein": "potato ADP-glucose pyrophosphorylase (AGPase) small subunit, wild type (enzyme, potato (S. tuberosum), UniProt P23509 1-521, looked up, Small subunit of potato (Solanum tuberosum) tuber ADP-glucose pyrophosphorylase, cDNA in plasmid pML10; as far as I recall it lacks the transit peptide; also called SS; SS^WT; source: E. coli AC70R1-504 (glgC-), plasmid pML10, co-expressed with LS (pML7), in cell-free extract) VSDSQNSQTCLDPDASRSVLGIILGGGAGTRLYPLTKKRAKPAVPLGANYRLIDIPVSNCLNSNISKIYVLTQFNSASLNRHLSRAYASNMGGYKNEGFVEVLAAQQSPENPDWFQGTADAVRQYLWLFEEHTVLEYLILAGDHLYRMDYEKFIQAHRETDADITVAALPMDEKRATAFGLMKIDEEGRIIEFAEKPQGEQLQAMKVDTTILGLDDKRAKEMPFIASMGIYVISKDVMLNLLRDKFPGANDFGSEVIPGATSLGMRVQAYLYDGYWEDIGTIEAFYNANLGITKKPVPDFSFYDRSAPIYTQPRYLPPSKMLDADVTDSVIGEGCVIKNCKIHHSVVGLRSCISEGAIIEDSLLMGADYYETDADRKLLAAKGSVPIGIGKNCHIKRAIIDKNARIGDNVKIINKDNVQEAARETDGYFIKSGIVTVIKDALIPSGIII", "values": [{"measurement": "stoichiometry N", "result": 2}]}]}
